According to publication PMC10538386 (Bioconjugate chemistry, 2023):

How the values were obtained:
[1] = target: the molecule itself; experiment: transmission electron microscopy
SEC = target: the molecule itself; experiment: SEC

Row | Protein | binding result [1] | binding result (SEC)
1 | PhMV Cys1+2 (A31C S137C) coat protein, assembled as virus-like particles (natural protein, Physalis mottle virus) MDSSEVVKVKQASIPAPGSILSQPNTEQSPCIVLPFQFEATTFGTAETAAQVSLQTADPITKLTAPYRHAQIVECKAILTPTDLAVSNPLTVYLAWVPANSPATPTQILRVYGGQSFVLGGAISAAKTIEVPLNLDCVNRMLKDSVTYTDTPKLLAYSRAPTNPSKIPTASIQISGRIRLSKPMLIAN | binds | 
2 | PhMV Cys2 (S137C) coat protein, assembled as virus-like particles (natural protein, Physalis mottle virus) MDSSEVVKVKQASIPAPGSILSQPNTEQSPAIVLPFQFEATTFGTAETAAQVSLQTADPITKLTAPYRHAQIVECKAILTPTDLAVSNPLTVYLAWVPANSPATPTQILRVYGGQSFVLGGAISAAKTIEVPLNLDCVNRMLKDSVTYTDTPKLLAYSRAPTNPSKIPTASIQISGRIRLSKPMLIAN |  | binds
3 | PhMV Cys1 (A31C) coat protein, assembled as virus-like particles (natural protein, Physalis mottle virus) MDSSEVVKVKQASIPAPGSILSQPNTEQSPCIVLPFQFEATTFGTAETAAQVSLQTADPITKLTAPYRHAQIVECKAILTPTDLAVSNPLTVYLAWVPANSPATPTQILRVYGGQSFVLGGAISAAKTIEVPLNLDSVNRMLKDSVTYTDTPKLLAYSRAPTNPSKIPTASIQISGRIRLSKPMLIAN |  | binds
